Data from patent US9328143B2, “Peptide derivatives and use thereof as carriers for molecules in the form of conjugates” (VECT-HORUS, priority 2008, dated 2016).
Where no end group is shown, it is not given here. [ ]: non-standard residue; d: D form. Rhodamine = not defined here

Key:
[1] = In situ brain perfusion in mouse, transport across the BBB; format: in vivo
Description: The in situ brain perfusion technique (in adult male OF1 mouse) is used here to select the best vectors and to provide proof of their mechanism of action for their passage in the brain across the BBB.
Radioactive peptides with high specific radioactivity (SRA, up to 100 Ci/mmol) are prepared by a strategy of acylation of the N-term amine function by tritiated propionic (or propanoic) anhydride or tritiated N-propionyl-succinimide (NPS).
The tritiation reaction of peptide vectors SEQ ID NO: 11 and SEQ ID NO: 48 in the N-term position by propionylation is carried out in DMF (1 mg peptide in 100 μl to 450 μl according to solubility) by adding 0.1 equivalent of tritiated NPS for 5 min at room temperature, then 0.9 equivalent of cold NPS (non-tritiated) for 1 h, and then a new equivalent of cold NPS for 5 h. The reaction medium is then left at 4° C. overnight and purified the following day by HPLC. The SRA for each tritiated peptide is between 5 Ci/mmol and 10 Ci/mmol (theoretically on the order of 7.7 Ci/mmol). The total quantity of radioactivity prepared by synthesis is between 600 μCi and 950 μCi.
The techniques briefly summarised below were developed to study the distribution in the brain of active substances and, in particular, the role of the BBB and, more particularly, of LDLR in the penetration of these molecules in the brain. In situ brain perfusion techniques are among the most technically demanding and the most difficult to perform in the mouse. However, in situ brain perfusion (like in vitro models) enables total control of the composition of the artificial perfusate in order to maintain the cells and vascularisation of the brain under normal physiological and anatomical conditions within the animal, without the disrupting factor of systemic distribution.
(§1) This strategy of in situ brain perfusion normally carried out in the rat was adapted for mouse (Dagenais et al., 2000, J Cereb Blood Flow Metab., 20(2), 381-6) in order to broaden its application for evaluating the parameters of transport kinetics at the BBB and the blood-retinal barrier, in transgenic and KO mutant mice for the receptors, enzymes or transporters of active substances. It involves catheterisation of a carotid artery in anaesthetised OF 1 mice and ligature of some branches of this carotid artery (external, thyroidal, occipital) in order to specifically perfuse the internal carotid and pterygopalatine arteries, which are used to evaluate the uptake in the brain of the vectors and conjugates. The catheter makes it possible to replace general circulation by infusion with a well-controlled perfusate (bicarbonate buffer, plasma or blood) by passing by the carotid. Oxygenated Krebs bicarbonate buffer is first used to evaluate the capacities of the vectors and conjugates to gain access to the brain. After catheterisation of the carotid, endogenous blood flow is stopped by sectioning the ventricles of the heart in order to avoid the mixture of buffer with blood and elevation in blood pressure. The duration of the fixed flow-rate perfusion is monitored. The buffer perfusion can be extended up to 20 min, or up to 1 h in the presence of oxygen transporters (washed erythrocytes) for studies of receptor-mediated transport (RMT).
The study of peptide vector SEQ ID NO: 11 made it possible to determine its brain transport or transfer coefficient (Kin). The duration of brain perfusion for these experiments is 5 min with a perfusate flow rate of 2 ml/min. Thus, the calculation of the Kin (volume of distribution over time of brain perfusion) of peptide vector SEQ ID NO: 11 gives a value of 3.5±0.2×10^−4 ml/s/g.

[2] = In situ perfusion in mouse, transport across the blood-retinal barrier; format: in vivo
From the text: as §1
In addition, the Kin of these various peptides, across the blood-retinal barrier (BRB), were also determined. Kin of SEQ ID NO: 11=1.2±0.2×10^−4 ml/s/g Kin of SEQ ID NO: 48=2.4±0.3×10^−4 ml/s/g Kin of SEQ ID NO: 73=0.0±0.0×10^−4 ml/s/g Kin of SEQ ID NO: 72=11.5±3.3×10^−4 ml/s/g Kin of SEQ ID NO: 74=1.8±0.2×10^−4 ml/s/g

[3] = test system: bovine brain microvascular endothelial cells (BBMEC); test: Binding and/or internalisation in endothelial cells of in vitro BBB model; format: cell-based; conditions: rhodamine fluorescence after cell lysis, 2 h, 5 h, 24 h
Description: The medium is changed twice per week. […] This BBMEC medium is changed three times per week.
This analysis was carried out by lysis of endothelial cells at various times (2 h, 5 h, 24 h), and by fluorimetric measurements of the quantity of fluorescence (rhodamine) associated with the cells (membrane and cytoplasmic compartments obtained by centrifugation of these cells after lysis).

hLDLR [4] = biological target: T1, hLDLR (Homo sapiens, UniProt P01130); test: Binding and endocytosis of tracer-conjugated synthesised peptides in CHO-hLDLR-GFP cells (fluorescence, immunocytochemistry); format: cell-based; set-up: expressed in transfected cells; conditions: CHO-LDLR-GFP cells, tracer-conjugated peptide, vs control peptides
T1 sequence (P01130 22-860): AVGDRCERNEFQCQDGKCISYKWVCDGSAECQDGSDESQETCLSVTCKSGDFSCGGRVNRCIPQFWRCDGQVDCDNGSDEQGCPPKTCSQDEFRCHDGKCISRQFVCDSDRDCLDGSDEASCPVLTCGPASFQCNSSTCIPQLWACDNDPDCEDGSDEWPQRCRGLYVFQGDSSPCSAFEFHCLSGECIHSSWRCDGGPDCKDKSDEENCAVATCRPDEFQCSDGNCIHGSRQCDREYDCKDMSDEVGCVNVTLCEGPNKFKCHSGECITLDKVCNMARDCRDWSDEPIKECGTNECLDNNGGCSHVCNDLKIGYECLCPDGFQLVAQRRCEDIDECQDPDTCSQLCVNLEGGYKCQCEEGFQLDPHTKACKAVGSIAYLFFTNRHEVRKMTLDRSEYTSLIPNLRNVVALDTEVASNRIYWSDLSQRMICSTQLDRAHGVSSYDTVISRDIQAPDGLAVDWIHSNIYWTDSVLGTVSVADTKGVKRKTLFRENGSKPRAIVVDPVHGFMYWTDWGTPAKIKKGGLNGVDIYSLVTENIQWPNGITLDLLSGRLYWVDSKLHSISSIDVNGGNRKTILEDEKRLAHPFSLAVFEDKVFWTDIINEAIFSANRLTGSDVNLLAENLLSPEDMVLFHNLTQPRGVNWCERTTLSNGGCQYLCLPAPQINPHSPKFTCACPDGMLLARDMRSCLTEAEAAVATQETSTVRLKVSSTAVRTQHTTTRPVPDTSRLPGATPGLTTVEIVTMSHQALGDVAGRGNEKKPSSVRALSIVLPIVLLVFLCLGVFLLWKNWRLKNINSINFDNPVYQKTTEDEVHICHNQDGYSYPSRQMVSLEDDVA
From the text: GFP fluorescence is visible in green (A1, B1 and C1); that related to peptides, visualised by rhodamine or by binding of an anti-S-Tag antibody coupled to Alexa594 is visible in red (A2, B2 and C2); and the superimposing of red and green stains is visible in yellow/orange (A3, B3 and C3). […] S-Tag (a 15 amino acid peptide derived from sequence 1-15 of bovine pancreatic ribonuclease A) on the one hand can be recognised by an anti-S-Tag antibody for immunocytochemistry or FACS approaches, and on the other hand can reconstitute enzymatic activity by binding with ribonuclease S-protein (C-term portion, amino acids 21-124) in tests of activity in vitro using the FRETWorks S-Tag assay kit (Novagen 70724-3). The ribonuclease thus activated digests an RNA substrate releasing a masked fluorescent agent visualised by FRET (fluorescence resonance energy transfer) and quantified in a 96-well plate in a Beckmann spectrofluorimeter. For these FRET experiments, control CHO cells and GFP fused in the C-term position with hLDLR and mLDLR, which generates strong background noise at the wavelengths used for FRET, was replaced by red fluorescent protein (RFP). The stable cell lines generated for the FRET experiments are thus CHO-RFP and CHO-hLDLR-RFP. Experiments involving the incubation of peptides on various cells expressing hLDLR were performed.

[5] = test system: bovine brain microvascular endothelial cells (BBMEC); test: Passage (Pe) across in vitro BBB model
Description: The potential toxic effects of peptides on endothelial cells, the binding/accumulation of peptides in these cells, and the passage by transcytosis of peptides were evaluated on in vitro BBB models. The cells necessary to set up the model (co-culture of endothelial cells from brain microvessels and astrocytes) are bovine cells (bovine brain microvascular endothelial cells, BBMEC) sold by Cellial Technologies (Lens, France).
The in vitro BBB model brings into play a co-culture of BBMECs and astrocytes. […]
The culture medium of the lower chamber is collected at various times and fluorescence quantified by fluorimetric analysis. The results are expressed as endothelial surface permeability (Pe) in units of 10^−3 cm/min. […] Transendothelial electrical resistance (TEER), measured with an ohmmeter and expressed in ohm·cm^2, also makes it possible to measure BBB integrity in vitro during tests of passage across the BBB. […]
This analysis is carried out by measuring by fluorimetry the quantity of fluorescence accumulated in the receiver wells at various times (1 h, 4 h, 24 h). The integrity of the BBB in the various wells analysed was evaluated by simultaneous measurement of the level of LY that passes from one compartment to the other as a function of time.

hLDLR [6] = biological target: T1, hLDLR; test: FACS: binding of bacterial viruses expressing peptides to HUVEC; set-up: endogenous in cells; host or cells: HUVEC (human umbilical vein endothelial cells), not genetically modified
Description: Evaluation by FACS of the interaction between HUVEC and two clones of bacterial viruses expressing peptides, one cyclic (SEQ ID NO: 11), the other linear (SEQ ID NO: 21), with affinity for hLDLR, compared with control bacterial viruses not expressing peptides with affinity for this receptor.
Qualitative immunocytochemistry was supplemented with quantitative flow cytometry (FACS) with suspended cells (GFP cell line, CHO-hLDLR-GFP cell line, human fibroblasts, HUVEC). These cells were grown in culture medium, mechanically unbound and dissociated (without trypsin), centrifuged, resuspended and incubated in the presence of various bacterial virus clones and anti-LDLR antibody, for 20 min at 4° C. in order to avoid any process of endocytosis. After washings, the bacterial viruses bound to cells were visualised with anti-viral envelope protein antibody. FACS analyses were carried out with a FACSCanto system (Becton Dickinson) using BD FACSDiva software. The number of positive cells was standardised with 5,000 events for each test. The results were expressed in arbitrary units of fluorescence.
FIGS. 9, 10, 11 correspond to the results obtained for peptides SEQ ID NO: 11, SEQ ID NO: 12 and SEQ ID NO: 21 on cells of the CHO-hLDLR-GFP cell line (FIG. 9), human fibroblasts (FIG. 10) and HUVEC (FIG. 11).

hLDLR [7] = biological target: T1, hLDLR; test: FACS on HUVEC: competition between peptides expressed by bacterial viruses and natural ligand LDL; format: binding; set-up: endogenous in cells; host or cells: HUVEC (human umbilical vein endothelial cells), not genetically modified
From the text: Evaluation by FACS on HUVEC of competition between the peptides expressed by the bacterial viruses with affinity for LDLR and its natural ligand LDL.
I—Graph representing the percentage of shift of the fluorescence signal in zone Q2 of graphs A-H obtained by FACS. […] Adding LDL leads to an 85% loss of signal in Q2 in […], indicating competition between the bacterial virus corresponding to peptide sequence SEQ ID NO: 21 and LDL at the site where LDL binds to hLDLR. The equally strong signal in Q2 of the bacterial viruses that express peptide SEQ ID NO: 11 (shift greater than 70% compared to control bacterial viruses) is only slightly shifted (17%) by adding LDL.
First, it is shown that the binding rate of bacterial viruses expressing peptides with affinity for hLDLR (SEQ ID NO: 21 and SEQ ID NO: 11 are used here as examples) is proportional to the level of LDLR expression by HUVEC. FACS experiments carried out in the presence of LDL made it possible to show and quantify a strong shift (85%) of LDL by linear peptides (for example SEQ ID NO: 21), but a small shift (17%) by cyclic peptides (for example SEQ ID NO: 11).

[8] = mouse in situ brain perfusion, BBB, 5 min, perfusate flow rate 2 ml/min, tritiated peptide

## Y-(D)-AGFLRGFAL-(D)-CMPRLRGC (Y[dA]GFLRGFAL[dC]MPRLRGC; cysteine pairing not given here) [SEQ ID NO: 72]
[1]; [8]
  Kin (brain transport or transfer coefficient): 19.6±3.9 ×10^−4 ml/s/g
[1]; ratio of Kin, BBB
  passage in the brain, factor vs non-vectorised free dalargin (SEQ ID NO: 74): 21.78
[2]; mouse in situ perfusion, BRB
  Kin across the blood-retinal barrier (BRB): 11.5±3.3 ×10^−4 ml/s/g
[2]; ratio of Kin, BRB
  BRB crossing, factor vs non-vectorised free dalargin (SEQ ID NO: 74): 6.39

## CMPRC [SEQ ID NO: 73, control peptide for the brain perfusion study, reference compound]
[1]; mouse, in vivo
  Kin (brain transport or transfer coefficient): 1.5±0.2 ×10^−4 ml/s/g
[2]; mouse, in vivo
  Kin across the blood-retinal barrier (BRB): 0.0±0.0 ×10^−4 ml/s/g

## SEQ ID NO: 1 conjugated with rhodamine: peptide SEQ ID NO: 1 conjugated in the C-term position with rhodamine via a spacer of three Gly residues (HLDCMPRGCFRNGGG-Rhodamine; cysteine pairing not given here; reading uncertain)
[3]
  binding and/or internalisation rate in endothelial cells: more affinity for endothelial cells in an in vitro BBB model than the control peptide
hLDLR [4]
  binding to cells expressing hLDLR: bind well to CHO-LDLR-GFP cells
  endocytosis / intracellular accumulation: incorporated by endocytosis
hLDLR [4]; listed as SEQ ID NO: 1/rhodamine
  endocytosis / intracellular accumulation: high levels of intracellular staining
[5]; 1 h and 4 h
  rate of passage (Pe) across in vitro BBB: cannot be distinguished from nonspecific or paracellular passage
[5]; 24 h
  rate of passage (Pe) across in vitro BBB: quite significantly higher than that of the control peptide

## Y-(D)-AGFLR (Y[dA]GFLR) [SEQ ID NO: 74, analgesic therapeutic peptide, dalargin, reference compound]
[1]; [8]
  Kin (brain transport or transfer coefficient): 0.9±0.1 ×10^−4 ml/s/g
[2]; mouse in situ perfusion, BRB
  Kin across the blood-retinal barrier (BRB): 1.8±0.2 ×10^−4 ml/s/g

## TPSAHAMALQSLSVG [SEQ ID NO: 21]
hLDLR [6]; peptide expressed by bacterial virus clone, vs control bacterial viruses
  shift of the signal in Q2 (FACS): significant shift
hLDLR [6]; peptide expressed by bacterial viruses, without LDL
  percentage of shift of the fluorescence signal in zone Q2: more than 55.8%
hLDLR [7]; FACS, LDL added
  effect of LDL on binding of peptides expressed by bacterial viruses: strongly decreases the binding
hLDLR [7]; peptide expressed by bacterial viruses, in the presence of LDL
  loss/shift of signal in Q2 on adding LDL: 85%
